Experimental data as given in patent US20240150474A1 (Regeneron, published 2024).

T1: human ACVR1 extracellular domain expressed with a C-terminal myc-myc-hexahistidine tag (human)
T1 construct: also called hACVR1-mmh; hACVR1.mmh
T1 chain: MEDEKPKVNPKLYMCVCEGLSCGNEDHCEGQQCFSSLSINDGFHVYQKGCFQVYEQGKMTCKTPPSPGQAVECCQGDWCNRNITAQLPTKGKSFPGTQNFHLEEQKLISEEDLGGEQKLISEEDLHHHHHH

T2: dimeric mouse ACVR1 (mouse, UniProt P37172 21-123, limits assumed)
T2 construct: also called Mouse Receptor ACVR1
T2 sequence (looked up): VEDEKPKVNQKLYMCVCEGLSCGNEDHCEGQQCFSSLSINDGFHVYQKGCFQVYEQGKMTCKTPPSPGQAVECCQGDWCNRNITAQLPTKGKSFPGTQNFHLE

T3: dimeric mouse BMPR1B (mouse, UniProt P36898 14-126, limits assumed)
T3 construct: Construct and dimerising part not described; also called Mouse Receptor BMPR1B
T3 sequence (looked up): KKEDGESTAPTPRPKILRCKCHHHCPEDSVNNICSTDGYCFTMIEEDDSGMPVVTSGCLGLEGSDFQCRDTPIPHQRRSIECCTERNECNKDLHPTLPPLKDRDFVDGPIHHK

T4: dimeric human BMPR1B (human, UniProt O00238 14-126, limits assumed)
T4 construct: Construct and dimerising part not described; also called Human Receptor BMPR1B
T4 sequence (looked up): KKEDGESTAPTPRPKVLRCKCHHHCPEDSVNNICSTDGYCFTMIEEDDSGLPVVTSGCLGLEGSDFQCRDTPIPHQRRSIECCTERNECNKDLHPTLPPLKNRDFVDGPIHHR

T5: dimeric mouse ACVRL1 (mouse, UniProt Q61288 23-119, limits assumed)
T5 construct: Construct and dimerising part not described; also called Mouse Receptor ACVRL1
T5 sequence (looked up): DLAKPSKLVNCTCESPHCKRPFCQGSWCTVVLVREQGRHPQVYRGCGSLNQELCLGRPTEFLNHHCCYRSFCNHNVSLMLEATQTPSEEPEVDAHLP

T6: dimeric human ACVR1 (human, UniProt Q04771 21-123, limits assumed)
T6 construct: ACVR1'; also called Human Receptor ACVR1
T6 sequence (looked up): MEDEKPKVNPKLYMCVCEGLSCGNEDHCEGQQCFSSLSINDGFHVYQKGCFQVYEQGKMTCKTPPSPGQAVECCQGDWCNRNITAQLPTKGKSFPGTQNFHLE


Assays:
[1] = biological target: T1, human ACVR1 extracellular domain …; assay: SPR Biacore T200, mAb captured by anti-human Fc, hACVR1-mmh injected, 37C
Description: Equilibrium dissociation constants (KD) for ACVR1 binding to purified anti-ACVR1 monoclonal antibodies were determined using a real-time surface plasmon resonance (SPR) based Biacore T200 biosensor. All binding studies were performed in 10 mM HEPES, 150 mM NaCl, 3 mM EDTA, and 0.05% v/v surfactant Tween-20, pH 7.4 (HBS-EP) running buffer at […]. The Biacore CM5 sensor surface was first derivatized by amine coupling with a monoclonal mouse anti-human Fc antibody (REGN2567) to capture anti-ACVR1 monoclonal antibodies. Different concentrations of ACVR1 reagents, human ACVR1 extracellular domain expressed with a C-terminal myc-myc-hexahistidine tag (hACVR1-mmh; REGN3111, SEQ ID NO: 63), mouse ACVR1 extracellular domain expressed with a C-terminal myc-myc-hexahistidine tag (mACVR1-mmh; REGN3407, SEQ ID NO: 65), human ACVR1 extracellular domain expressed with a C-terminal mouse IgG2a Fc tag (hACVR1-mFc; REGN3112, SEQ ID NO: 64); and mouse ACVR1 extracellular domain expressed with a C-terminal mouse IgG2a Fc tag (mACVR1-mFc, R&D system), at concentrations ranging from 0.41 nM to 100 nM in a series of 3-fold dilutions prepared in HBS-EP running buffer were injected at a flow rate of 50 μL/min for 1.5 minutes. The dissociation of different ACVR1 reagents bound to anti-ACVR1 monoclonal antibodies was monitored for 20 minutes in HBS-EP running buffer. At the end of each cycle, the anti-ACVR1 monoclonal antibodies capture surface was regenerated using a 12 sec injection of 20 mM H3PO4. The association rate (ka) and dissociation rate (kd) were determined by fitting the real-time binding sensorgrams to a 1:1 binding model with mass transport limitation using Scrubber 2.0c curve-fitting software. Binding dissociation equilibrium constant (KD) and dissociative half-life (t½) were calculated from the kinetic rates as: […]
Binding kinetics parameters for different ACVR1 reagents to anti-ACVR1 monoclonal antibodies of the invention at 37° C. are shown in Table 5 through Table 8.

[2] = biological target: T2, dimeric mouse ACVR1; assay: SPR Biacore T200, mAb captured by anti-human Fab, 100 nM dimeric receptor injected, 25C
Description: (§1) ACVR1 mAbs were tested for cross-reactivity to a panel of bone morphogenic protein type 1 receptors including human and mouse ACVR1, BMPR1A, and BMPR1B, as well as ACVRL1 on a Biacore T200 as follows. In order to measure the specificity of ACVR1 mAbs, ACVR1 mAbs were captured with anti-human Fab immobilized on a CM5 chip. 100 nM or 10 nM of dimeric human or mouse ACVR1, ACVRL1, BMPR1A or BMPR1B were injected at 30 μL/min for 2 min (duplicate injections) and the experiment was performed at 25° C. Binding of different receptors to the captured mAb was determined using Scrubber 2.0c software.

[3] = biological target: T7, dimeric mouse BMPR1A (mouse, UniProt P36895 24-152, limits assumed); assay: as above
T7 construct: Construct and dimerising part not described; also called Mouse Receptor BMPR1A
Description: as §1

[4] = biological target: T3, dimeric mouse BMPR1B; assay: as above
Description: as §1

[5] = biological target: T8, dimeric human ACVRL1 (human, UniProt P37023 22-118, limits assumed); assay: as above
T8 construct: Construct and dimerising part not described; also called Human Receptor ACVRL1
Description: as §1

[6] = biological target: T4, dimeric human BMPR1B; assay: as above
Description: as §1

[7] = biological target: T5, dimeric mouse ACVRL1; assay: as above
Description: as §1

[8] = biological target: T9, dimeric human BMPR1A (human, UniProt P36894 24-152, limits assumed); assay: as above
T9 construct: Construct and dimerising part not described; also called Human Receptor BMPR1A
Description: as §1

[9] = biological target: T6, dimeric human ACVR1; assay: as above
Description: as §1

T7 sequence (P36895 24-152 limits assumed): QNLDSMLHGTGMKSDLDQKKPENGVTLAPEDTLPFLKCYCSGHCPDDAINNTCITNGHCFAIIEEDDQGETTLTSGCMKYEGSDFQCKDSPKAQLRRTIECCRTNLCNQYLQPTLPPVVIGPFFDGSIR
T8 sequence (P37023 22-118 limits assumed): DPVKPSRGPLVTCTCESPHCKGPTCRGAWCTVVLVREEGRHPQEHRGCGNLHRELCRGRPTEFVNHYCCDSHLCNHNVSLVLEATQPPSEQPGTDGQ
T9 sequence (P36894 24-152 limits assumed): as the sequence (P36895 24-152 limits assumed) above, with L16S, P21S, T74A counted along it

| Binder | 100 nM Ag Bound (RU) [1] [RU] | Kd [1] [nM] | koff [1] [s⁻¹] | kon [1] [M⁻¹ s⁻¹] | t½ [1] [h] | 100 nM Mouse Receptor Binding [2] [RU] | 100 nM Mouse Receptor Binding [3] [RU] | 100 nM Mouse Receptor Binding [4] [RU] | 100 nM Human Receptor Binding [5] [RU] | 100 nM Human Receptor Binding [6] [RU] | 100 nM Mouse Receptor Binding [7] [RU] | 100 nM Human Receptor Binding [8] [RU] | 100 nM Human Receptor Binding [9] [RU] |
| --- | --- | --- | --- | --- | --- | --- | --- | --- | --- | --- | --- | --- | --- |
| REGN 5167 (antibody, human IgG4 S228P, kappa, V domains shown, also called REGN 5167-L1) VH: QLQLQESGPGLVKPSETLSLTCTVSGGSITSSSYYWAWIRQPPGKGLEWIGKIYYSGSTHYNPSLKSRVTISVDTSKNQFSLKLSSVTAADTAVYYCARVGGHGYGDSAGLAFDIWGQGTMVTVSS VL: EIVLTQSPGTLSLSPGERATLSCRASQSVSSAFLAWYQQKPGQAPRLLIYGASYRHTGIPDRFSGSGSGTDFTLTISRLEPEDFAVYYCQHYGVGPRTFGGGTKVEIKR | 43 | 0.227 | 0.000163 | 718000 | 1.18 | 130 | 3 | 1 | 1 | 10 | 1 | 2 | 130 |
| REGN 5166 (antibody, human IgG4 S228P, kappa, V domains shown, also called REGN 5166-L1) VH: QVQLVESGGGVVQPGRSLRLSCAASGFTFSAYWMHWVRQAPGKGLEWVAVISYDGSNKYYADSVKGRFTISRDHSKNTLYLQMNSLRAEDTAVYYCAKGDAYDSWRILLGGDYYGMDVWGQGTTVTVSS VL: EIVLTQSPGTLSLSPGERATLSCRASQSVSSSYLAWYQQKPGQAPRPLIYGASSRATGIPDRFSGSGSGTDFTLTISRLEPEDFAVYYCQQGGDAPPYTFGGGTKVEIKR | 43 | 0.26 | 0.000176 | 677000 | 1.08 | 141 | 9 | 1 | 4 | 24 | 4 | 2 | 147 |
| REGN 5168 (antibody, human IgG4 S228P, kappa, V domains shown, also called REGN 5168-L1) VH: QVQLVQSGAEVKEPGASVKVSCKASGYTFAEYYMHWVRQAPGQGLEWMGAINPSGSHTSYAQKFQGRVTMTRDTSTSTVYMELSSLRSEDTAVYYCARSISGKRGGDYYGMDVWGQGTTVTVSS VL: DIQMTQSPSTLSASVGDRVTITCRASQSISSWLAWYQQKPGKAPKLLIYKASSLESGVPSRFSGSGSGTEFTLTISSLQPDDFATYYCQQYSIFPFTFGGGTKVEIKR | 42 | 1.21 | 0.00159 | 1.31e+06 | 0.117 | 140 | 8 | 1 | 2 | 20 | 3 | 2 | 147 |
